Measurements as given in the Human Domainome abundance scans (Beltran et al. 2025).
± gives the uncertainty stated by the source.

B1: E3 ubiquitin-protein ligase TRIM36, residues 208 to 252; numbered along this chain, Q9NQ86 (parent)
chain: KILMCPEHETERINMYCELCRRPVCHLCKLGGNHANHRVTTMSSA

Variants of: B1
Experiment: abundance fitness (aPCA) (normalised: wild type 0, dead -1); higher = more abundant; growth selection in yeast, the domain comes from the species named
Conditions: Homo sapiens

Row | Variant | abundance fitness
1 | KILMCPEHETERINMYCELCRRPVCHLCKYGGNHANHRVTTMSSA [L30Y] | -0.549 ± 0.14
2 | KILMCPEHETERINMYCELCRRPVCHLCKKGGNHANHRVTTMSSA [L30K] | 0.101 ± 0.065
3 | KILMCPEHETERINMYCELCRRPVCHLCKSGGNHANHRVTTMSSA [L30S] | 0.075 ± 0.05
4 | KILMCPEHETERINMYCELCRRPVCHLCKAGGNHANHRVTTMSSA [L30A] | 0.094 ± 0.05
5 | KILMCPEHETERINMYCELCRRPVCHLCKWGGNHANHRVTTMSSA [L30W] | -0.203 ± 0.058
6 | KILMCPEHETERINMYCELCRRPVCHLCKIGGNHANHRVTTMSSA [L30I] | -0.05 ± 0.11
7 | KILMCPEHETERINMYCELCRRPVCHLCKFGGNHANHRVTTMSSA [L30F] | -0.206 ± 0.14
8 | KILMCPEHETERINMYCELCRRPVCHLCKQGGNHANHRVTTMSSA [L30Q] | 0.067 ± 0.056
9 | KILMCPEHETERINMYCELCRRPVCHLCKGGGNHANHRVTTMSSA [L30G] | 0.073 ± 0.051
10 | KILMCPEHETERINMYCELCRRPVCHLCKDGGNHANHRVTTMSSA [L30D] | 0.083 ± 0.063
11 | KILMCPEHETERINMYCELCRRPVCHLCKHGGNHANHRVTTMSSA [L30H] | -0.078 ± 0.097
12 | KILMCPEHETERINMYCELCRRPVCHLCKPGGNHANHRVTTMSSA [L30P] | 0.005 ± 0.056
13 | KILMCPEHETERINMYCELCRRPVCHLCKCGGNHANHRVTTMSSA [L30C] | -0.023 ± 0.063
14 | KILMCPEHETERINMYCELCRRPVCHLCKVGGNHANHRVTTMSSA [L30V] | 0.026 ± 0.048
15 | KILMCPEHETERINMYCELCRRPVCHLCKTGGNHANHRVTTMSSA [L30T] | 0.096 ± 0.058
16 | KILMCPEHETERINMYCELCRRPVCHLCKEGGNHANHRVTTMSSA [L30E] | 0.09 ± 0.056
17 | KILMCPEHETERINMYCELCRRPVCHLCKNGGNHANHRVTTMSSA [L30N] | 0.042 ± 0.089
18 | KILMCPEHETERINMYCELCRRPVCHTCKLGGNHANHRVTTMSSA [L27T] | 0.095 ± 0.081
19 | KILMCPEHETERINMYCELCRRPVCHQCKLGGNHANHRVTTMSSA [L27Q] | 0.019 ± 0.061

Row | Variant | abundance fitness
20 | KILMCPEHETERINMYCELCRRPVCHICKLGGNHANHRVTTMSSA [L27I] | -0.041 ± 0.064
21 | KILMCPEHETERINMYCELCRRPVCHMCKLGGNHANHRVTTMSSA [L27M] | -0.092 ± 0.089
22 | KILMCPEHETERINMYCELCRRPVCHSCKLGGNHANHRVTTMSSA [L27S] | -0.003 ± 0.055
23 | KILMCPEHETERINMYCELCRRPVCHYCKLGGNHANHRVTTMSSA [L27Y] | -0.222 ± 0.16
24 | KILMCPEHETERINMYCELCRRPVCHGCKLGGNHANHRVTTMSSA [L27G] | -0.141 ± 0.043
25 | KILMCPEHETERINMYCELCRRPVCHDCKLGGNHANHRVTTMSSA [L27D] | -0.202 ± 0.084
26 | KILMCPEHETERINMYCELCRRPVCHWCKLGGNHANHRVTTMSSA [L27W] | -0.223 ± 0.052
27 | KILMCPEHETERINMYCELCRRPVCHRCKLGGNHANHRVTTMSSA [L27R] | 0.015 ± 0.044
28 | KILMCPEHETERINMYCELCRRPVCHFCKLGGNHANHRVTTMSSA [L27F] | -0.182 ± 0.083
29 | KILMCPEHETERINMYCELCRRPVCHNCKLGGNHANHRVTTMSSA [L27N] | 0.005 ± 0.12
30 | KILMCPEHETERINMYCELCRRPVCHPCKLGGNHANHRVTTMSSA [L27P] | -0.355 ± 0.071
31 | KILMCPEHETERINMYCELCRRPVCHECKLGGNHANHRVTTMSSA [L27E] | -0.058 ± 0.05
32 | KILMCPEHETERINMYCELCRRPVCHLCKLHGNHANHRVTTMSSA [G31H] | -0.08 ± 0.056
33 | KILMCPEHETERINMYCELCRRPVCHLCKLNGNHANHRVTTMSSA [G31N] | -0.058 ± 0.078
34 | KILMCPEHETERINMYCELCRRPVCHLCKLEGNHANHRVTTMSSA [G31E] | -0.111 ± 0.063
35 | KILMCPEHETERINMYCELCRRPVCHLCKLLGNHANHRVTTMSSA [G31L] | -0.259 ± 0.049
36 | KILMCPEHETERINMYCELCRRPVCHLCKLDGNHANHRVTTMSSA [G31D] | -0.109 ± 0.079
37 | KILMCPEHETERINMYCELCRRPVCHLCKLIGNHANHRVTTMSSA [G31I] | -0.203 ± 0.081
38 | KILMCPEHETERINMYCELCRRPVCHLCKLFGNHANHRVTTMSSA [G31F] | -0.218 ± 0.094

Row | Variant | abundance fitness
39 | KILMCPEHETERINMYCELCRRPVCHLCKLTGNHANHRVTTMSSA [G31T] | 0 ± 0.055
40 | KILMCPEHETERINMYCELCRRPVCHLCKLPGNHANHRVTTMSSA [G31P] | -0.285 ± 0.051
41 | KILMCPEHETERINMYCELCRRPVCHLCKLRGNHANHRVTTMSSA [G31R] | -0.048 ± 0.048
42 | KILMCPEHETERINMYCELCRRPVCHLCKLQGNHANHRVTTMSSA [G31Q] | -0.019 ± 0.056
43 | KILMCPEHETERINMYCELCRRPVCHLCKLAGNHANHRVTTMSSA [G31A] | -0.034 ± 0.046
44 | KILMCPEHETERINMYCELCRRPVCHLCKLSGNHANHRVTTMSSA [G31S] | -0.007 ± 0.053
45 | KILMCPEHETERINMYCELCRRPVCHLCKLYGNHANHRVTTMSSA [G31Y] | -0.176 ± 0.058
46 | KILMCPEHETERINMYCELCRRPVCHLCKLCGNHANHRVTTMSSA [G31C] | -0.094 ± 0.069
47 | KILMCPEHETERINMYCELCRRPVCHLCKLWGNHANHRVTTMSSA [G31W] | -0.438 ± 0.057
48 | KILMCPEHETERINMYCELCRRPVCHLCKLKGNHANHRVTTMSSA [G31K] | -0.091 ± 0.083
49 | KILMCPEHETERINMYCELCRRPVCHLCKLGGFHANHRVTTMSSA [N33F] | -0.125 ± 0.092
50 | KILMCPEHETERINMYCELCRRPVCHLCKLGGHHANHRVTTMSSA [N33H] | -0.046 ± 0.071
51 | KILMCPEHETERINMYCELCRRPVCHLCKLGGGHANHRVTTMSSA [N33G] | 0.028 ± 0.046
52 | KILMCPEHETERINMYCELCRRPVCHLCKLGGLHANHRVTTMSSA [N33L] | -0.028 ± 0.048
53 | KILMCPEHETERINMYCELCRRPVCHLCKLGGAHANHRVTTMSSA [N33A] | 0.071 ± 0.056
54 | KILMCPEHETERINMYCELCRRPVCHLCKLGGKHANHRVTTMSSA [N33K] | 0.016 ± 0.061
55 | KILMCPEHETERINMYCELCRRPVCHLCKLGGIHANHRVTTMSSA [N33I] | -0.064 ± 0.072
56 | KILMCPEHETERINMYCELCRRPVCHLCKLGGEHANHRVTTMSSA [N33E] | -0.003 ± 0.072
57 | KILMCPEHETERINMYCELCRRPVCHLCKLGGDHANHRVTTMSSA [N33D] | 0.007 ± 0.062
